Data as given in patent US20240181074A1, “PEGYLATED T CELL ENGAGER WITH DUAL SPECIFICITIES TO CD3 AND CD19” (Shenzhen Enduring Biotech, Ltd., priority 2021, published 2024).
pKd: −log10 of the molar value.

Tests used:
[1] = system: patients; conditions: human, in vivo; cited from earlier work
[2] = target: T1, human CD19 (Homo sapiens, UniProt P15391); test: ELISA assay, binding to human CD19 protein; conditions: OD450
T1 sequence (P15391 20-291 limits assumed): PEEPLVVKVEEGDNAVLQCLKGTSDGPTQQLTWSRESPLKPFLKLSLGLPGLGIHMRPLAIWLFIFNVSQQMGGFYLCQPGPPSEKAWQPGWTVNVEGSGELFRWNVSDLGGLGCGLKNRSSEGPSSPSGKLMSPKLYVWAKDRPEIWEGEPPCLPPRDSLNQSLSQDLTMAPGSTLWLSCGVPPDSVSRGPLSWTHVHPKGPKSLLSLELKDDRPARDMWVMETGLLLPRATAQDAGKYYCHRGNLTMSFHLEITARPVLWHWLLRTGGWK
Description: (§1) Plates were coated with SCACD3, CD3-PEG and JY108 respectively at 100 μl/well. […] After coating, each plate was washed for 3 times with PBST (200 μL/well). Next, each plate was blocked with 5% BSA in PBST at 37° C. for 2 hours. After blocking, each plate was washed with PBST for 3 times followed by the addition of either […], 0.1 μg, and 0 μg human CD19-Fc protein (Acrobiosystems, Code: CD9-H5259) in 0.5% BSA in PBST (10 μg/mL, 1 μg/mL, 0 μg/mL, 100 μL/well) or […] human CD3E&CD3D (Acrobiosytems, Code: CDD-H52W0) in 0.5% BSA in PBST (10 μg/mL, 100 μl/well) to corresponding wells. The plates were incubated at 37° C. for 1 hour followed by washing with PBST for 3 times. 100 μL of […] HRP conjugated anti-human IgG (GenScript, Code: A01854) was then added to each well. The plates were incubated at 37° C. for 1.5 hours. After incubation, each plate was washed with PBST for 3 times followed by the addition of 100 μL of TMB to each well. The development reaction for each plate was set in dark for 15 minutes and terminated with 100 μL/per well of stop solution.

[3] = target: T2, human CD3E&CD3D protein (Homo sapiens, UniProt P07766); test: ELISA assay, binding to human CD3E&CD3D protein; conditions: coating concentration of 1 μg/ml, OD450
T2 construct: purchased AcroBiosystems CDD-H52W0
T2 sequence (P07766 23-126 limits assumed): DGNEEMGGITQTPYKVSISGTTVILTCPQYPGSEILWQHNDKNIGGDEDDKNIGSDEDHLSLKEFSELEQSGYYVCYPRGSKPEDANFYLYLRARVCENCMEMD
T2 sequence (P04234 22-105 partner limits assumed): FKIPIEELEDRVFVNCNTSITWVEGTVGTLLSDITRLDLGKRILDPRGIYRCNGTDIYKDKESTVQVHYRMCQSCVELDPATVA
Description: as §1

[4] = target: T3, human CD3E&3D (Homo sapiens, UniProt P07766); test: BiaCore assay, binding to human CD3E&3D; conditions: ligand human CD3E&3D captured on chip
T3 construct: purchased AcroBiosystems CDD-H52W0
T3 sequence (P07766 23-126 limits assumed): as the sequence (P07766 23-126 limits assumed) above
T3 sequence (P04234 22-105 partner limits assumed): as the sequence (P04234 22-105 partner limits assumed) above
Description: (§2) The anti-CD3 scFv (SCACD3) has the amino acid sequence set forth in SEQ ID NO: 2. The anti-CD19 scFv (SCACD19) has the amino acid sequence set forth in SEQ ID NO: 1. Methods for preparation of theses samples were described in detail in WO 2018/075308 A1.
(§3) General procedure: Diluted human CD19 (AcroBiosystems, Cat. CD19-H5259) or human CD3E&3D (AcroBiosystems, Cat. CDD-H52W0) were captured on the sensor chip through Fc capture method. The capture time for human CD3E & CD3D and for human CD19 was set for 12 s and 12-30 s respectively and capture flow rate was […]. Each sample tested was serially diluted into 6-8 concentrations. The association time and dissociation time for the analytes were set for 180 s and 420 s respectively, and the flow rate for the analyte was set at […]. For surface regeneration, 10 mM Glycine-HCl buffer was used; the contact time was set for 30 s and the flow rate was […]. Flow cell 1 and blank injection of buffer in each cycle were used as double references for Response Units subtraction. All data were processed using BiaCore T2000 Evaluation software (version 3.1).

[5] = human, in vivo; cited from earlier work
[6] = in vivo; cited from earlier work
[7] = target: T1, human CD19; test: BiaCore assay, binding to human CD19; conditions: ligand human CD19 captured on chip
Description: as §2, §3

[8] = system: MS patients; conditions: at 48 weeks; cited from earlier work

Row | ranking of affinity to human CD3E&CD3D [3] | pKd [4] | ka [4] [M⁻¹ s⁻¹] | kd [4] [s⁻¹] | pKd [7] | ka [7] [M⁻¹ s⁻¹] | kd [7] [s⁻¹] | pKd ([7]; listed as blinatumomab) | Substance | toxicity in patients [1] | ranking of binding to human CD19 [2] | circulation half-life [5] [h] | half-life [6] | MS patients experiencing relapse of the disease [8] [%]
1 | SCACD3>blinatumomab>JY108>SCACD3-PEG | 8.94 | 1.08e+06 | 0.00123 | 9.68 | 1.92e+06 | 0.000397 | 9.68 | Blinatumomab: T-BsAb or BiTE (Bispecific T cell Engager) approved for ALL, redirecting T cells to CD19+ B cells; control drug | frequent cytokine release syndrome (CRS) and central nerve system (CNS) toxicity | SCACD19>blinatumomab>JY108>SCACD19-linker | 1.25 | about 2 h | –
2 | – | – | – | – | – | – | – | – | rituximab: anti-CD20 antibody | – | – | – | – | ~20
